One series has as its target T1, prothrombinase (Homo sapiens, UniProt P00734).
T1 construct: purchased Haematologic Technologies Inc. (Essex Junction, Vt.)
Put plainly: Assay measuring thrombin formation (prothrombinase inhibition by peptides, DAPA fluorescence). Format: biochemical. Conditions: for inhibition of prothrombinase activity with increasing peptide: FIG. 10A, up to 8000 nM. On the procedure: Assay measuring thrombin formation. The formation of thrombin was analyzed using the fluorescent thrombin inhibitor DAPA as described using a Perkin Elmer LS-50B Luminescence Spectrometer (Perkin-Elmer LLC, Norwalk Conn.) with λex=280 nm, λem=550 nm and a 500 nm long pass filter in the emission beam (Schott KV-500). […] In all cases peptides were preincubated with factor tor Va prior to the assay as described in the legend to the figures. The final concentration of factor tor Va in the mixture was 4 nM with factor Xa at 10 nM, prothrombin at 350 nM, DAPA at 700 nM, in the presence of PCPS vesicles (10 μM). The initial rate of thrombin formation (nM IIa·min^−1) was calculated as described during the initial 5-10 sec of the reaction. To verify if the peptides have any effect on the active-site of thrombin, control experiments were performed as follows: a given peptide (at 100 μM) was incubated in the assay buffer containing DAPA (700 nM); the base line was monitored for 30 sec; thrombin (350 nM) was then added to the mixture and the fluorescent intensity resulting from the complexation of DAPA with the active site of thrombin was monitored for 60 sec. The slope of the reaction measuring thrombin formation in the presence of a given peptide during the first 5 sec was calculated and compared to the slope of a reaction obtained in the absence of peptide. It is noteworthy that under the conditions employed the thrombin-DAPA interaction occurred fast and the calculated slope of the reaction was sensitive to all parameters used. […] All experiments were performed in triplicates or as indicated. The concentration of each peptide given in the figures and figure legends is their final concentration in the assay. […] In some cases the data were also analyzed and plotted using DeltaGraph (DeltaPoint, Monterey, Calif.).
Specifically, peptides were incubated with factor tor Va as described herein at a fixed concentration (100 μM). The percent of factor tor Va cofactor activity was calculated by comparing the activity of prothrombinase in the presence of a given peptide to the activity of prothrombinase determined in a control reaction in the absence of peptide and in the presence of factor Xa. […] The control peptide represents a pentadecapeptide from the middle portion of factor tor Va heavy chain (P15H) (SEQ ID NO. 22). […] All other peptides from region 680-709 had no significant effect on prothrombinase activity.
HC3 represents amino acid sequence 690-699 of factor tor Va heavy chain; HC4 contains the sequence 695-704 of human factor tor Va heavy chain; P15H represents amino acid sequence 337-351 from the middle portion of human factor tor Va heavy chain. […] The concentration of each peptide given on the x axis represents its final concentration in the prothrombinase mixture. […] Thus, both peptides show similar inhibitory potential.

The nature of series [1]: Clotting time as a function of peptide concentration (FIG. 12). Conditions: peptide 500 nM. The source says:
FIG. 12 is a graph illustrating clotting time as a function of concentration of various peptides of interest as follows: DYDYQ (SEQ ID NO. 11) (filled squares); DYDYQ (1, 2) (or as designated in shorthand form, D5Q1,2) (SEQ ID NO. 9) (filled triangles); DYDYQ-1 (SEQ ID NO. 7) (filled inverted triangles); and DYDYQ-2 (SEQ ID NO. 8) (filled diamonds).

The target in another series is factor Xa (Homo sapiens, UniProt P00742). In words: Cofactor effect of factor Va heavy chain peptides on factor Xa alone. It is filed as biochemical. Particulars: peptide incubated with factor Xa alone.
Series [2] deals with T2, active-site-immobilized thrombin (Homo sapiens, UniProt P00734).
T2 construct: Factor Xa cleaves prothrombin to form thrombin; purchased Haematologic Technologies Inc. (Essex Junction, Vt.)
Put plainly: Direct binding of the peptides to thrombin-agarose (chromatography). Particulars: 400 μg peptide, 2.5 ml column, elution 2M NaCl. How it is done: Direct binding of the peptides to thrombin. Thrombin was immobilized onto agarose through the active site as described. Peptide solutions of HC1-HC5 (SEQ ID NO. 2-6, respectively), D13R (SEQ ID NO. 21), DYDYQ (SEQ ID NO. 11), and P15H (SEQ ID NO. 22) were dissolved in water to a given concentration and then diluted in 20 mM Hepes, 0.1 M NaCl, pH 7.4 in a manner that 400 μg was contained in each starting solution. In control experiments it was determined that the maximum amount of peptide that could be retained by the thrombin-agarose column was 400 μg. Since some of the peptides contain aromatic amino acid residues, their concentration was also measured by optical density.
Mass spectrometry instruments and conditions. The identity of all peptides found in the flow-through or the elution of the thrombin-agarose column was verified by mass spectrometry. Since the peptides were in a buffer solution, we used Liquid Chromatography/Mass Spectrometry (LC/MS) for their identification. In this procedure peptides are first separated from the salt content of the buffer using an HPLC system (HP 1100, HPLC gradient system, Agilent Technologies, Palo Alto Calif.) with a C18 column (1 mm×15 cm, GraceVydac, Hesperia Calif.) with buffers A (0.3% acetic acid in water) and B (0.3% acetic acid in acetonitrile). The elution of the column was monitored with a Micromass Quatro II ESI-Triple Quadrupole Mass Spectrometer (Waters, Milford Mass.). The data were collected using a Compaq Professional Workstation AP200 (Hewlett-Packard, Palo Alto Calif.) and analyzed by the software MassLynx v3.3 (Waters, Milford Mass.).
Direct interaction of hirudin-like peptides from factor tor Va heavy chain With thrombin-agarose. To ascertain that the peptides of interest are inhibitory of prothrombinase activity and contain a binding site for thrombin, the interaction of all peptides with active-site-immobilized thrombin was studied in chromatographic experiments and is shown in FIG. 5. In FIG. 5, small scale chromatography of hirudin-like peptides was performed on a 2.5 ml thrombin-agarose. Each run represents 400 μg of peptide. This amount of peptide was determined to saturate the specific sites of thrombin of the column used (2.5 ml). Elution was performed with 2M NaCl and was started at the point indicated by the arrow (fraction #30). The presence of the peptides in the corresponding fractions was monitored by absorbance at 280 nm (shown on the y axis) and by LC/MS (inset). […] Specifically, these peptides were treated similarly to all other peptides and similar fractions were collected. Aliquots from fractions #7 and #35 from each separate experiment were submitted to LC/MS analysis as described herein (depicted by the hatched arrows at the bottom of the chromatogram). The results from tube #7 from three chromatograms are depicted. The data are presented as % intensity of the signal as a function of the mass of the peptide divided by the charge (m/z). FIG. 5A, HC1 (Mr calculated 1268); FIG. 5B, HC2 (Mr calculated 1132); FIG. 5C, HC5 (Mr calculated 1053). The spectrum of HC1 has two major peaks: at 635.5 and at 424, and one minor peak at 1270 (1268+1). The peak at 635.5 represents the peptide (mass/charge) with two positive charges ([…]) i.e. [(1268+2=1270)]/2=635 whereas, the peak at 424 represents HC1 with three positive charges ([…]) i.e. [(1268+3=1271)]/3=424. […] HC5 spectrum has two major peaks: one at 528 and one at 352. The peak at 528 represents the peptide with two positive charges ([…]) i.e. [(1053+2=1055)]/2=527.5 while, the other peak represents HC5 with three positive charges ([M+31-]^2+) i.e. [(1053+3=1056)]/3=352. The minor peak at 1054 represents the peptide with one charge. It is noteworthy, that in gas phase the number of protons attached to each peptide depends on the number (quantity) of basic residues contained in each peptide. […] Thus, HC1 and HC5 are more likely to bind two or three protons than HC2. […]

Series [3] has as its system factor V deficient plasma. In words: Clotting activity of recombinant factor V molecules. Particulars: for Activity / Specific activity / clotting time: factor V species at 2.5 nM. On the procedure: Determination of factor V/tor Va clotting activity of the recombinant molecules. Cofactor activity of wild type and mutant molecules was measured in a clotting assay using factor V deficient plasma prior and after activation by thrombin (15 min, 37° C.) and RVV-V activator (2 hr, 37° C.) as described. The values were standardized to the percentage of control. A linear semi-log graph was constructed using known concentrations of purified factor V (U/ml as a function of clotting time). The assay endpoint was determined by visualization of the fibrin clot. The activity of the factor VNa solution (U/ml) was determined by extrapolation from the graph. The concentration of the recombinant molecules was determined by a recently described ELISA. Finally, the numbers were combined to obtain the specific activity of the recombinant factor V solutions (U/mg).

“Also recorded” adds a separate entry of the source. No end group written: not given here. *: point of attachment. SO3 = O=S(=O)(O)*

factor Xa, sequence (P00742 235-488 limits assumed): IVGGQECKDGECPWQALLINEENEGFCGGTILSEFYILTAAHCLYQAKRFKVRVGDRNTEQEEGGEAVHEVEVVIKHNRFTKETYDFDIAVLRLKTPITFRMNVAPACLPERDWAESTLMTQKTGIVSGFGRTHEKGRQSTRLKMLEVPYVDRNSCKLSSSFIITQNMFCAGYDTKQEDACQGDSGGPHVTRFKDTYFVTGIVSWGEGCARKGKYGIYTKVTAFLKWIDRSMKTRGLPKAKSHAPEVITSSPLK
factor Xa, sequence (P00742 41-179 limits assumed): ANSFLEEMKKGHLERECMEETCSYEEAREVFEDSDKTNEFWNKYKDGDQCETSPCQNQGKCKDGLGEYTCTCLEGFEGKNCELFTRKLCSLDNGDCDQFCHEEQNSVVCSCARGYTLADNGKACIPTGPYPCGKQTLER

As to “DYDY(—SO3)Q (DYDY(SO3)Q) [DYDYQ-2, DYDYQ with second Y sulfonated]”, in the series with prothrombinase, the “inhibition of prothrombinase activity with increasing peptide” value is listed as “significant inhibitory effects”. For the same substance, the clotting time entry in series [1] is on record as “relatively long clotting times”.
Take “AP4′: nine amino acid peptide, residues 323-331, from N42R (EYFIAAEEV; listed as Homo sapiens)”: in the series with factor Xa, the “cofactor effect on factor Xa” value is recorded as “generated a cofactor effect”.
As for “HC1: overlapping 10 amino acid peptide from region 680-709 of human factor Va heavy chain (KMHDRLEPED; listed as Homo sapiens)”, the “interaction with immobilized thrombin (thrombin-agarose)” value (“interaction with immobilized thrombin” for short) in series [2] is “present in the flow-through”.
As for “DY(—SO3)DYQ (DY(SO3)DYQ) [DYDYQ-1, DYDYQ with first Y sulfonated]”, the “inhibition of prothrombinase activity with increasing peptide” value with prothrombinase is “significant inhibitory effects”. The clotting time result in series [1] was “relatively long clotting times”.
In the case of “P15H: negative control pentadecapeptide, amino acid sequence 337-351 from the middle portion of human factor Va heavy chain (PVIPANMDKKYRSQH) [reference compound]”, in series [2], the “interaction with immobilized thrombin” value was “did not interact with thrombin”. Further, the “effect on prothrombinase / factor Va cofactor activity at fixed concentration” value in the series with prothrombinase (peptide 100 μM) is on record as “no effect on cofactor activity; also recorded: no effect on prothrombinase function”.
For “HC2: overlapping 10 amino acid peptide from region 680-709 of human factor Va heavy chain (LEPEDEESDA; listed as Homo sapiens)”, in series [2], the “interaction with immobilized thrombin” value is “present in the flow-through”.
As for “Wild type FV: recombinant wild type human factor V expressed in COS-7L cells”, the “specific clotting activity after activation by RVV-V activator” value in series [3] (activated by RVV-V activator) amounted to 570 U/mg. The “specific clotting activity after activation by thrombin” value in series [3] (activated by thrombin) came to 497 U/mg. In addition, in series [3], the Activity is 0.12 U/ml, the Specific activity is 145 U/mg and the clotting time turned out to be 32.1 ± 1.2 s.
As for “Factor V^2K2F: quadruple mutant, recombinant human factor V with mutations D695→K, Y696→F, D697→K, Y698→F”, in series [3], the “ability to promote clotting” value is on record as “unable to promote clotting”, the Activity is recorded as 0.0046 U/ml, the Specific activity turned out to be 5.6 U/mg and the clotting time amounted to 66.7 ± 1.3 s.
On to “E5A: five amino acid peptide, residues 323-327, from N42R (EYFIA; listed as Homo sapiens)”, for which the “cofactor effect on factor Xa” value in the series with factor Xa is recorded as “generated a cofactor effect”.
The same measure, in the same setting: to “N42R: 42 amino acid peptide from the middle portion of factor Va heavy chain, residues 307-351 of factor V (NLKKITREQRRHMKRWEYFIAAEEVIWDYAPVIPANMDKKYR; listed as Homo sapiens)” belongs “increasing the catalytic efficiency of the enzyme by several-fold”.

The record behind these values is patent US20100267638A1, “EXOSITE-DIRECTED THROMBIN INHIBITORS” (CLEVELAND STATE UNIVERSITY, priority 2003, published 2010).
